Where “and” joins values, the source holds several entries; their conditions need not be identical. Equal entries are not always repeated. Where two headings read alike, the source gives them in different places.
Key:
[1] = biological target: HCV core106 (first N-terminal 106 residues of HCV core protein) (hepatitis C virus (strain not stated)); assay: cross-linking
[2] = biological target: Flag-core106 (hepatitis C virus (strain not stated)); assay: AlphaScreen or HTRF
[3] = biological target: Flag-core169 (hepatitis C virus H77 genotype 1a); assay: AlphaScreen or HTRF
[4] = biological target: Flag-core106 (hepatitis C virus (strain not stated)); assay: AlphaScreen or HTRF; remark: listed apart in the source
[5] = biological target: HCV core169 (first 169 residues of HCV core protein, domains D1+D2) (hepatitis C virus H77 genotype 1a); assay: cross-linking

Substance	stoichiometry N [1]	IC50 [2]	IC50 [3]	IC50 [4]	stoichiometry N [5]
HCV core106 (first N-terminal 106 residues of HCV core protein) (domain or fragment)	2	220 nM	870 nM	344 nM	–
HCV core169 (first 169 residues of HCV core protein, domains D1+D2) (domain or fragment)	–	–	–	–	2 and 3
